Tested on: chemotherapy-induced peripheral neuropathy model induced by cisplatin in mice
Experiment: Cancer pain associated with CIPN model induced by cisplatin in mice, mechanical allodynia test
Format: in vivo, mouse
Conditions: C57BL/6 mice; for pain thresholds (50% PWT) of treatment groups vs model group, preventive effect: 15 mg/kg i.p. qd or bid in parallel with cisplatin
Method: The experiments in this Example were divided into two parts. In the first part (Part I), the administration of SEQ ID NO: 29 was performed in parallel with modeling to explore the preventive effect of the polypeptide of the present disclosure on cancer pain associated with CIPN, in particular CIPN induced by cisplatin. In the second part (Part II), after elution of SEQ ID NO: 29 from the mice's bodies, mechanical allodynia tests were performed on the mice to confirm that the animals still had the cancer pain associated with CIPN, and to explore the therapeutic effect of the polypeptide of the present disclosure on cancer pain associated with CIPN after modeling.
44 male C57BL/6 mice weighting 20 to 25 g were randomly divided into 4 groups, with 8 mice in the control group (Group 1, administered with vehicle (normal saline)), 12 mice in the model group (Group 2, administered with vehicle (normal saline) and cisplatin (2.3 mg/kg, i.p., qd)), 12 mice in the treatment group (qd) (Group 3, administered with SEQ ID NO: 29 (15 mg/kg, i.p., qd) and cisplatin (2.3 mg/kg, i.p., qd)) and 12 mice in the treatment group (bid) (Group 4, administered with SEQ ID NO: 29 (15 mg/kg, i.p., bid) and cisplatin (2.3 mg/kg, i.p., qd)).
Administration of SEQ ID NO: 29 was performed on scheduled dates. Briefly, SEQ ID NO: 29 was administered qd or bid by intraperitoneal injection on each day from Day 1 to Day 11, followed by a washing-out period ranging from Day 12 to Day 23. Afterwards, the administration of SEQ ID NO: 29 was resumed on the basis of the same regimen as above, lasting from Day 24 to Day 30.
The mice were subjected to mechanical allodynia tests 0 h before administration and 2 h after the first administration of the test articles (normal saline or SEQ ID NO: 29) according to the method as recited in Example 1 on Day 6, Day 10, Day 23 and Day 30, respectively.

B1: SEQ ID NO: 29: exemplary polypeptide of the present disclosure; artificial polypeptide of formula (I) X-Y (protein)
chain: SEKKQPVDLGLLEEDDEFEEFPAEDWAGLDEDEDAHVWEDNWDDDNVEDDFSNQLRATVLLMILVAETPYGAYVLHQKGRMASAFLAA
In the case of B1, the “pain thresholds (50% PWT) of treatment groups, therapeutic effect” value (15 mg/kg i.p. qd or bid Day 24 to Day 30, Day 30 vs Day 23) is reported as “significantly increased”, the “pain thresholds (50% PWT) of treatment groups vs model group, preventive effect” value (Day 6) is reported as “significantly higher than those of the mice from the model group” and the “pain thresholds (50% PWT) of treatment groups vs model group, preventive effect” value (Day 10) is reported as “significantly higher than those of the mice from the model group”. For the same molecule, the “levels of pain thresholds under different dosing frequency” value (15 mg/kg i.p., qd vs bid) was “dose-related”.
